The text below walks through data of US7037656B2, “Methods and compositions for identifying ligands for nuclear receptors” (priority 2000, dated 2006).

Common to all, as to assay: cell-based or functional assay
The target of test [1] is full-length mosquito A. aegypti ultraspiracle receptor, b-form (AaUSPb) (Aedes aegypti).
Test [2] has as its target full-length mosquito A. aegypti ultraspiracle receptor, a-form (AaUSPa) (Aedes aegypti).
For test [3], the target named is mouse RXR β (retinoid X receptor β) (mouse) (UniProt P28704).
mouse RXR β (retinoid X receptor β) (mouse), sequence (P28704 111-520 limits assumed): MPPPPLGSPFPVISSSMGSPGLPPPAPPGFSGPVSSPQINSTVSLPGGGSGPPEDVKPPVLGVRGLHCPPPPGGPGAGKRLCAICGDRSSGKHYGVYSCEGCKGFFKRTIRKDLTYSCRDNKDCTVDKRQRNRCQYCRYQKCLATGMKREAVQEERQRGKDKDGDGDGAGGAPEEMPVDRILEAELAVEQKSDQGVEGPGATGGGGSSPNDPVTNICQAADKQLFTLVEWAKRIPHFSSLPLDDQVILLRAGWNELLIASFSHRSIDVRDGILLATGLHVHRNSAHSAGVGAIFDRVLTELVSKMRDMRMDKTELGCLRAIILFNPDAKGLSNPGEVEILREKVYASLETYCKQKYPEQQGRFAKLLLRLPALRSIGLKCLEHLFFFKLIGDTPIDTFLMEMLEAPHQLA
Test [4] deals with spruce budworm C. fumiferana ultraspiracle receptor with deletion of the A/B transactivation domain (Cf ΔAB USP) (Choristoneura fumiferana).
For test [5], the target named is human RXR α (retinoid X receptor α) (human) (UniProt P19793).
human RXR α (retinoid X receptor α) (human), sequence (P19793 whole entry): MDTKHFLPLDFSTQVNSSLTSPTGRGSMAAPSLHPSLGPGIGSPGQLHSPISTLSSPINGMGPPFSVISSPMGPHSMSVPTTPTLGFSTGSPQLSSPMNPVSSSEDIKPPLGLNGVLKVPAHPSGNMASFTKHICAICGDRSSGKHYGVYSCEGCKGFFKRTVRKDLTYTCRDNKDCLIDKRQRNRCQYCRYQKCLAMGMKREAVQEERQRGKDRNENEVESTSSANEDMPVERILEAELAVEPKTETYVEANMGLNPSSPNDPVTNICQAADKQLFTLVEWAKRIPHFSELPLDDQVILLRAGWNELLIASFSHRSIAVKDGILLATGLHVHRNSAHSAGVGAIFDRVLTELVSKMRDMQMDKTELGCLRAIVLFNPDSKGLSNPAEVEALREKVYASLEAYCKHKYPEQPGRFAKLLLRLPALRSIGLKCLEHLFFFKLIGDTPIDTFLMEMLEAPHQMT
Test [6] deals with mouse RXR γ (retinoid X receptor γ) (mouse) (UniProt P28705).
mouse RXR γ (retinoid X receptor γ) (mouse), sequence (P28705 whole entry): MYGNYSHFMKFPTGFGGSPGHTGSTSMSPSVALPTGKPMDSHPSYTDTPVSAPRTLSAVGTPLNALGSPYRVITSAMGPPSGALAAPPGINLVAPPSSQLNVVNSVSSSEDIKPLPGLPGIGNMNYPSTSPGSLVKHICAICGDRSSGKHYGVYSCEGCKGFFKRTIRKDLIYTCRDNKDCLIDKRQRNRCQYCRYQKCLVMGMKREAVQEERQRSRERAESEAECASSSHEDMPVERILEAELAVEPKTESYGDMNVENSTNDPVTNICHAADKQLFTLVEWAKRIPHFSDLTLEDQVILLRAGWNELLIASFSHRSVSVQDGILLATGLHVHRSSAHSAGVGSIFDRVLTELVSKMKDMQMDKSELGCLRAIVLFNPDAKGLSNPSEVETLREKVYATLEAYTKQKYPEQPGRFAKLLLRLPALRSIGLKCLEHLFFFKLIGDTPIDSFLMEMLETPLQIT
Test [7] addresses full-length spruce budworm C. fumiferana ultraspiracle receptor (CfUSP) (Choristoneura fumiferana).
For test [8], the target named is T1, full-length D. melanogaster ultraspiracle receptor (DmUSP) (Drosophila melanogaster).
T1 sequence (P20153 1-508, looked up): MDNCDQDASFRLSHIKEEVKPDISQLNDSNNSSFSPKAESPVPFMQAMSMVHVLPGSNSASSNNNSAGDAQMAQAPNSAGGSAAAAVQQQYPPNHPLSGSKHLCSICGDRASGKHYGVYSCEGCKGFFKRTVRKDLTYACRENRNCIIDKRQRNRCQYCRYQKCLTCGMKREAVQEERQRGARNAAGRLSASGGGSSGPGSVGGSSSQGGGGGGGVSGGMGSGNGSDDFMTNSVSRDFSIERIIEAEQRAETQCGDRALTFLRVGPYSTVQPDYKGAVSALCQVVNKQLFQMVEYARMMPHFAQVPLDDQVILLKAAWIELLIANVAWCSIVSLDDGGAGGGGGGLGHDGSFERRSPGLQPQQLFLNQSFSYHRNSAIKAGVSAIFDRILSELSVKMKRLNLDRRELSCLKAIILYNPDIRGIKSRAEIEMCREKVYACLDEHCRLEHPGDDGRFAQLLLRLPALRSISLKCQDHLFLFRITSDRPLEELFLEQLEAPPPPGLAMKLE

Test [9] deals with D. melanogaster ultraspiracle receptor with deletion of the AB transactivation domain (Dm ΔAB USP) (Drosophila melanogaster) (UniProt P20153).
Test [10] concerns the target mosquito A. aegypti ultraspiracle receptor with deletion of the A/B transactivation domain (Aa ΔAB USP) (Aedes aegypti).

In the case of “full-length mosquito A. aegypti ecdysone receptor (AaEcR) (from UniProt P49880 1-776)”, in test [1], the β-galactosidase activity (yeast 6x EcRE-lacZ reporter), DMSO, without GRIP1 came out at 3 and the β-galactosidase activity (yeast 6x EcRE-lacZ reporter), RH 5992 10 µM, without GRIP1 was 2.7. For the same molecule, in test [2], the β-galactosidase activity (yeast 6x EcRE-lacZ reporter), DMSO, without GRIP1 amounted to 2.3 and the β-galactosidase activity (yeast 6x EcRE-lacZ reporter), RH 5992 10 µM, without GRIP1 amounted to 2.45.
“spruce budworm C. fumiferana ecdysone receptor with deletion of the AB transactivation domain (Cf ΔAB EcR)”: in test [3], the β-galactosidase activity (yeast 6x EcRE-lacZ reporter), DMSO, with GRIP1 stood at 0.205 and the β-galactosidase activity (yeast 6x EcRE-lacZ reporter), RH 5992 10 µM, with GRIP1 is 0.456. For the same molecule, in test [4], the β-galactosidase activity (yeast 6x EcRE-lacZ reporter), DMSO, with GRIP1 came out at 0.2; the β-galactosidase activity (yeast 6x EcRE-lacZ reporter), DMSO, without GRIP1 amounted to 0.209; the β-galactosidase activity (yeast 6x EcRE-lacZ reporter), RH 5992 10 µM, with GRIP1 was 2.5; the β-galactosidase activity (yeast 6x EcRE-lacZ reporter), RH 5992 10 µM, with GRIP1 (Table 4 prints another value than Table 3 for this combination) was 3. The same molecule registered a β-galactosidase activity (yeast 6x EcRE-lacZ reporter), RH 5992 10 µM, without GRIP1 in test [4] of 0.234. In test [5], this molecule showed a β-galactosidase activity (yeast 6x EcRE-lacZ reporter), DMSO, with GRIP1 of 0.27 and a β-galactosidase activity (yeast 6x EcRE-lacZ reporter), RH 5992 10 µM, with GRIP1 of 2.06. Also, in test [6], the β-galactosidase activity (yeast 6x EcRE-lacZ reporter), DMSO, with GRIP1 came to 0.2 and the β-galactosidase activity (yeast 6x EcRE-lacZ reporter), RH 5992 10 µM, with GRIP1 came out at 1.03. Also, in test [7], the β-galactosidase activity (yeast 6x EcRE-lacZ reporter), DMSO, without GRIP1 was 2.68 and the β-galactosidase activity (yeast 6x EcRE-lacZ reporter), RH 5992 10 µM, without GRIP1 is 3.
In the case of “N-terminal truncated D. melanogaster EcR B-1 ecdysone receptor (Dm ΔN EcR) (from UniProt P34021 221-878)”, the β-galactosidase activity (yeast 6x EcRE-lacZ reporter), DMSO, with GRIP1 is 0.235 in test [4]; 0.364 in test [6]; 0.424 in test [8]; 0.251 in test [1]; 1.15 in test [7]; 0.243 in [2]. Further, the β-galactosidase activity (yeast 6x EcRE-lacZ reporter), DMSO, with GRIP1 in test [9] came to 0.34. Also, the β-galactosidase activity (yeast 6x EcRE-lacZ reporter), RH 5992 10 µM, with GRIP1 stood at 0.59 in [4]; 1.28 in test [6]; 2.54 in test [8]; 2.07 in test [1]; 1.41 in test [7]; 1.86 in test [2]. The molecule further returned a β-galactosidase activity (yeast 6x EcRE-lacZ reporter), RH 5992 10 µM, with GRIP1 in [9] of 2.32. In [8], this molecule registered a β-galactosidase activity (yeast 6x EcRE-lacZ reporter), DMSO, without GRIP1 of 0.152. In test [8], this molecule yielded a β-galactosidase activity (yeast 6x EcRE-lacZ reporter), RH 5992 10 µM, without GRIP1 of 0.182.
“full-length spruce budworm C. fumiferana ecdysone receptor (CfEcR)”: in [4], the β-galactosidase activity (yeast 6x EcRE-lacZ reporter), DMSO, with GRIP1 amounted to 0.223; the β-galactosidase activity (yeast 6x EcRE-lacZ reporter), DMSO, without GRIP1 worked out at 0.205; the β-galactosidase activity (yeast 6x EcRE-lacZ reporter), RH 5992 10 µM, with GRIP1 was 0.492; the β-galactosidase activity (yeast 6x EcRE-lacZ reporter), RH 5992 10 µM, without GRIP1 was 0.241. Further, in test [7], the β-galactosidase activity (yeast 6x EcRE-lacZ reporter), DMSO, without GRIP1 was 2.73 and the β-galactosidase activity (yeast 6x EcRE-lacZ reporter), RH 5992 10 µM, without GRIP1 was 3.
As for “mosquito A. aegypti ecdysone receptor with deletion of the A/B transactivation domain (Aa ΔAB EcR) (from UniProt P49880 285-776)”, the β-galactosidase activity (yeast 6x EcRE-lacZ reporter), DMSO, with GRIP1 in test [3] was 0.231; in test [4] it was 0.25; in [5] it was 0.544; in test [6], 0.496; in test [1], 0.24; in [10] it was 0.194. For the same molecule, the β-galactosidase activity (yeast 6x EcRE-lacZ reporter), DMSO, with GRIP1 in [2] amounted to 0.272. In addition, the β-galactosidase activity (yeast 6x EcRE-lacZ reporter), RH 5992 10 µM, with GRIP1 in test [3] turned out to be 1.98; in [4], 3; in [5], 2.03; in [6], 2.67; in [1], 2.07; in test [10], 1.37. This molecule also gave a β-galactosidase activity (yeast 6x EcRE-lacZ reporter), RH 5992 10 µM, with GRIP1 in [2] of 2.03. Also, the β-galactosidase activity (yeast 6x EcRE-lacZ reporter), DMSO, without GRIP1 in [1] was determined as 0.177; in test [10], 0.187; in test [2], 0.194. The β-galactosidase activity (yeast 6x EcRE-lacZ reporter), RH 5992 10 µM, without GRIP1 came out at 0.184 in test [1], 0.196 in [10] and 0.209 in test [2].

B1: full-length D. melanogaster EcR B-1 ecdysone receptor (receptor, Drosophila melanogaster, UniProt P34021 1-878, looked up)
chain: MKRRWSNNGGFMRLPEESSSEVTSSSNGLVLPSGVNMSPSSLDSHDYCDQDLWLCGNESGSFGGSNGHGLSQQQQSVITLAMHGCSSTLPAQTTIIPINGNANGNGGSTNGQYVPGATNLGALANGMLNGGFNGMQQQIQNGHGLINSTTPSTPTTPLHLQQNLGGAGGGGIGGMGILHHANGTPNGLIGVVGGGGGVGLGVGGGGVGGLGMQHTPRSDSVNSISSGRDDLSPSSSLNGYSANESCDAKKSKKGPAPRVQEELCLVCGDRASGYHYNALTCEGCKGFFRRSVTKSAVYCCKFGRACEMDMYMRRKCQECRLKKCLAVGMRPECVVPENQCAMKRREKKAQKEKDKMTTSPSSQHGGNGSLASGGGQDFVKKEILDLMTCEPPQHATIPLLPDEILAKCQARNIPSLTYNQLAVIYKLIWYQDGYEQPSEEDLRRIMSQPDENESQTDVSFRHITEITILTVQLIVEFAKGLPAFTKIPQEDQITLLKACSSEVMMLRMARRYDHSSDSIFFANNRSYTRDSYKMAGMADNIEDLLHFCRQMFSMKVDNVEYALLTAIVIFSDRPGLEKAQLVEAIQSYYIDTLRIYILNRHCGDSMSLVFYAKLLSILTELRTLGNQNAEMCFSLKLKNRKLPKFLEEIWDVHAIPPSVQSHLQITQEENERLERAERMRASVGGAITAGIDCDSASTSAAAAAAQHQPQPQPQPQPSSLTQNDSQHQTQPQLQPQLPPQLQGQLQPQLQPQLQTQLQPQIQPQPQLLPVSAPVPASVTAPGSLSAVSTSSEYMGGSAAIGPITPATTSSITAAVTASSTTSAVPMGNGVGVGVGVGGNVSMYANAQTAMALMGVALHSHQEQLIGGVAVKSEHSTTA
Regarding B1, in [8], the β-galactosidase activity (yeast 6x EcRE-lacZ reporter), DMSO, without GRIP1 came to 2.09 and the β-galactosidase activity (yeast 6x EcRE-lacZ reporter), RH 5992 10 µM, without GRIP1 came to 1.95.
